Test results published in patent US20070014736A1, “Methods of delivering corticotroph-derived glycoprotein hormone” (priority 2005, published 2007).

Key:
thymus = tested on: thymus; design: species or system mice; conditions: mouse, in vivo
From the text: Since the receptor for CGH, TSH-R, is expressed by the adrenal glands, there was concern that the anti-inflammatory effects observed might be an indirect effect of increasing endogenous corticosteroid production in CGH-treated mice. One well-established side effect of increasing either exogenous or endogenous corticosteroid levels is substantial atrophy of the thymus, as the developing T cells are induced to undergo apoptosis. Therefore, the thymuses of the CGH and Dex-treated mice in the DTH experiments were analyzed. […] Thus, CGH seems to be mediating its anti-inflammatory effects in a manner distinct from that of exgenous glucocorticoids like Dex.

[1] = tested on: undifferentiated 3T3 L1 fibroblasts; assay: CRE-luciferase reporter assay in undifferentiated 3T3 L1 fibroblasts; type: cell-based, murine
From the text: Differentiated murine 3T3 L1 adipocytes and primary human adipocytes were used to study signal transduction of CGH. 3T3 L1 fibroblasts were differentiated into adipocytes and the cells were transduced with recombinant adenovirus containing a reporter construct, a firefly luciferase gene under the control of cAMP response element (CRE) enhancer sequences. This assay system detects cAMP-mediated gene induction downstream of activation of Gs-coupled G-protein coupled receptors (GPCR's). […] In a separate experiment, undifferentiated 3T3 L1 fibroblasts were transduced with the recombinant adenovirus. […] In another experiment, human primary adipocytes were also transduced with the recombinant adenovirus containing a reporter construct. Treatment of the human adipocytes with isoproterenol produced a 17-fold induction of luciferase expression.
Cells were cultured at 37° C. in an 8% CO2 humidified incubator. Cells were seeded to collagen-coated 96-well plates (Becton Dickinson, cat. #356407) at a density of 5,000 cells per well. […] Luciferase activity was measured on a microplate luminometer (PerkinElmer Life Sciences, Inc., model LB 96V2R) following automated injection of 40 μl of luciferase assay substrate into each well. […]

NCI-H295R = assay: CRE-luciferase reporter assay in NCI-H295R adrenal cortex cells; type: cell-based, human
From the text: Summary: A human adrenal cortex cell line, NCI-H295R, was used to study signal transduction of CGH. NCI-H295R was transduced with recombinant adenovirus containing a reporter construct, a firefly luciferase gene under the control of cAMP response element (CRE) enhancer sequences. This assay system detects cAMP-mediated gene induction downstream of activation of Gs-coupled GPCR's (G-protein coupled receptors). […] Typically, CGH elicited a maximal response of 15-40-fold luciferase induction above control media.
NCI-H295R cells were obtained from the ATCC (CRL-2128, Manassas, Va.) and cultured in growth medium as follows: 1:1 mixture of Dulbecco's modified Eagle's medium and Ham's F12 medium with L-glutamine (D-MEM/F-12; GIBCO, cat.#11320-033) containing 25 mM HEPES buffer (GIBCO, Invitrogen, Carlsbad, Calif., cat.#15630-080), 1 mM sodium pyruvate (GIBCO, cat.#11360-070), 1% ITS+1 media supplement (Sigma St. Louis, Mo. cat#I2521) and 2.5% Nu-Se I (BD Biosciences, Lexington, Ky. cat.#355100). Cells were cultured at 37° C. in a 5% CO2 humidified incubator. […]
Promega's Luciferase Assay System (Promega, Madison, Wis., cat. #E1500) was used to process the treated cells. […] Luciferase activity was measured on a microplate luminometer (PerkinElmer Life Sciences, Inc., model LB 96V2R) following automated injection of luciferase assay substrate.

B1: CGH: heterodimeric protein hormone comprised of alpha subunit GPHA2 and beta subunit GPHB5, recombinantly produced in CHO cells (protein)
chain 1: QEAVIPGCHLHPFNVTVRSDRQGTCQGSHVAQACVGHCESSAFPSRYSVLVASGYRHNITSVSQCCTISGLKKVKVQLQCVGSRREELEIFTARACQCDMCRLSRY
chain 2: ASSGNLRTFVGCAVREFTFLAKKPGCRGLRITTDACWGRCETWEKPILEPPYIEAHHRVCTYNETKQVTVKLPNCAPGVDPFYTYPVAIRCDCGACSTATTECETI
B1 was tested, and the “relative proportion of each thymocyte subset vs PBS-treated group” value (thymus) was “not significantly different”, the reporter gene induction [1] was “did not result in an increase in reporter gene induction” and the “maximal response, luciferase induction above control media” value (NCI-H295R; CRE-luciferase, 4 h) was 15-40 fold. The “induction of luciferase activity compared with 10 μM forskolin” value (NCI-H295R; dose-dependent) was “equal to or higher than that induced by 10 μM forskolin”.
